Biological target: CD46, stably expressed on CHO cells (CHO-CD46) (human) (UniProt P15529)
Chain of UniProt P15529 (P15529 35-392): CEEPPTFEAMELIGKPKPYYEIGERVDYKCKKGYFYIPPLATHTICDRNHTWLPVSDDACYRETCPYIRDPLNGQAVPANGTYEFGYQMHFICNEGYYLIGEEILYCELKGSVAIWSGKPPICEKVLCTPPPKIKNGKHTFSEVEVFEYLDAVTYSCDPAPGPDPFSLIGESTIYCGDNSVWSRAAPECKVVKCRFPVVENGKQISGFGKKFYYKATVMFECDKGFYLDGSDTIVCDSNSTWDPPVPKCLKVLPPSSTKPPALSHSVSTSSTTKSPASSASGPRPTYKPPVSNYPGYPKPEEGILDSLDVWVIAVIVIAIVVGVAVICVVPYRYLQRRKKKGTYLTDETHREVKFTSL

Row | Binder | percent GFP-positive cells by flow cytometry after infection of CHO-CD46 cells with 2000 vp/c of the Ad3 vector (transduction; CHO-K1 without receptor is not transduced) [%] | percent GFP-positive cells by flow cytometry after infection of CHO-CD46 cells with 2000 vp/c of the Ad3-JO4 vector (transduction; CHO-K1 without receptor is not transduced) [%]
1 | human adenovirus type 3 (Ad3) fiber, on particles of the Ad3 vector (natural protein) MAKRARLSTSFNPVYPYEDESSSQHPFINPGFISPDGFTQSPNGVLSLKCVNPLTTASGSLQLKVGSGLTVDTTDGSLEENIKVNTPLTKSNHSINLPIGNGLQIEQNKLCSKLGNGLTFDSSNSIALKNNTLWTGPKPEANCIIEYGKQNPDSKLTLILVKNGGIVNGYVTLMGASDYVNTLFKNKNVSINVELYFDATGHILPDSSSLKTDLELKYKQTADFSARGFMPSTTAYPFVLPNAGTHNENYIFGQCYYKASDGALFPLEVTVMLNKRLPDSRTSYVMTFLWSLNAGLAPETTQATLITSPFTFSYIREDD | 13 | –
2 | human adenovirus type 3 (Ad3) fiber with the JO4 mutation (V239D), on particles of the Ad3-JO4 vector (natural protein) MAKRARLSTSFNPVYPYEDESSSQHPFINPGFISPDGFTQSPNGVLSLKCVNPLTTASGSLQLKVGSGLTVDTTDGSLEENIKVNTPLTKSNHSINLPIGNGLQIEQNKLCSKLGNGLTFDSSNSIALKNNTLWTGPKPEANCIIEYGKQNPDSKLTLILVKNGGIVNGYVTLMGASDYVNTLFKNKNVSINVELYFDATGHILPDSSSLKTDLELKYKQTADFSARGFMPSTTAYPFDLPNAGTHNENYIFGQCYYKASDGALFPLEVTVMLNKRLPDSRTSYVMTFLWSLNAGLAPETTQATLITSPFTFSYIREDD | – | < 5
